Values of other authors in PMC10105536.
Values joined by “and” are separate entries in the source; they are usually repeats but may differ in a detail not shown here. Identical values can stand only once.

Target: EGFR (Homo sapiens) (UniProt P00533)

In the case of EGF (from UniProt P01133), the Kd is listed as 0.3 nM and 2 nM.
